Measured values reported in patent US20070280947A1.

What was measured:
Human Tie-1 (human) = Human Tie-1 (human) (UniProt P35590); test: cell-based or functional assay
Human Tie-2 (human) = Human Tie-2 (human) (UniProt Q02763); test: cell-based or functional assay
Sequence of UniProt Q02763 (Q02763 23-1124 Q346P/T695I): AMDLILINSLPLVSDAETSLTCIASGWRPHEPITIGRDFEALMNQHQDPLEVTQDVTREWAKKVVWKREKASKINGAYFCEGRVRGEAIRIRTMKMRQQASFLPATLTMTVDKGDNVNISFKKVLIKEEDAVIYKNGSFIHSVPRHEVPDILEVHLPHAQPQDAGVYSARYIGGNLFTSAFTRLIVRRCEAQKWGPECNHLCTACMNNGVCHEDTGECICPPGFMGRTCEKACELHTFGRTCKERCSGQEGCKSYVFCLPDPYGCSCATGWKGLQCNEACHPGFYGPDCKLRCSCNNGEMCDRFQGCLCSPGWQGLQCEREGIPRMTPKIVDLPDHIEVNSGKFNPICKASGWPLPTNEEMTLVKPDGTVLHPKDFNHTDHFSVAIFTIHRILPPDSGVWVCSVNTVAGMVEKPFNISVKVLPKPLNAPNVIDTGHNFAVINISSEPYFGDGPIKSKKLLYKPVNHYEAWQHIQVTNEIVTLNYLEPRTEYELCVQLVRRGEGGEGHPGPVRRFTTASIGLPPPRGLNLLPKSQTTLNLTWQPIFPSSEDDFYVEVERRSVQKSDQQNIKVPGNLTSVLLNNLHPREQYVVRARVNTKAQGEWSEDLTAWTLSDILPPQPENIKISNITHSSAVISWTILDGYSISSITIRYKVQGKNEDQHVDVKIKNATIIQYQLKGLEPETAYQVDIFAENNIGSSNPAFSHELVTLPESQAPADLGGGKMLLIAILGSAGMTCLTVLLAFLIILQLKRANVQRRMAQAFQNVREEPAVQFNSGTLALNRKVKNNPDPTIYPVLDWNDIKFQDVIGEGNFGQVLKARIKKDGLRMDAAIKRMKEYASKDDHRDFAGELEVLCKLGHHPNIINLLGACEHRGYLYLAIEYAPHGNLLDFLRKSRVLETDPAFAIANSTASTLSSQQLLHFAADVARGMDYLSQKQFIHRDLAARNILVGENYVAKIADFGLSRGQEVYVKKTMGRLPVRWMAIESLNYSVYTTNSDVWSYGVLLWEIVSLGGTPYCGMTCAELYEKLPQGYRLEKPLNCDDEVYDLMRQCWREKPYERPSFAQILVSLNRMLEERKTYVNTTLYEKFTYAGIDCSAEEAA

Sequence of UniProt P35590 (P35590 25-1138): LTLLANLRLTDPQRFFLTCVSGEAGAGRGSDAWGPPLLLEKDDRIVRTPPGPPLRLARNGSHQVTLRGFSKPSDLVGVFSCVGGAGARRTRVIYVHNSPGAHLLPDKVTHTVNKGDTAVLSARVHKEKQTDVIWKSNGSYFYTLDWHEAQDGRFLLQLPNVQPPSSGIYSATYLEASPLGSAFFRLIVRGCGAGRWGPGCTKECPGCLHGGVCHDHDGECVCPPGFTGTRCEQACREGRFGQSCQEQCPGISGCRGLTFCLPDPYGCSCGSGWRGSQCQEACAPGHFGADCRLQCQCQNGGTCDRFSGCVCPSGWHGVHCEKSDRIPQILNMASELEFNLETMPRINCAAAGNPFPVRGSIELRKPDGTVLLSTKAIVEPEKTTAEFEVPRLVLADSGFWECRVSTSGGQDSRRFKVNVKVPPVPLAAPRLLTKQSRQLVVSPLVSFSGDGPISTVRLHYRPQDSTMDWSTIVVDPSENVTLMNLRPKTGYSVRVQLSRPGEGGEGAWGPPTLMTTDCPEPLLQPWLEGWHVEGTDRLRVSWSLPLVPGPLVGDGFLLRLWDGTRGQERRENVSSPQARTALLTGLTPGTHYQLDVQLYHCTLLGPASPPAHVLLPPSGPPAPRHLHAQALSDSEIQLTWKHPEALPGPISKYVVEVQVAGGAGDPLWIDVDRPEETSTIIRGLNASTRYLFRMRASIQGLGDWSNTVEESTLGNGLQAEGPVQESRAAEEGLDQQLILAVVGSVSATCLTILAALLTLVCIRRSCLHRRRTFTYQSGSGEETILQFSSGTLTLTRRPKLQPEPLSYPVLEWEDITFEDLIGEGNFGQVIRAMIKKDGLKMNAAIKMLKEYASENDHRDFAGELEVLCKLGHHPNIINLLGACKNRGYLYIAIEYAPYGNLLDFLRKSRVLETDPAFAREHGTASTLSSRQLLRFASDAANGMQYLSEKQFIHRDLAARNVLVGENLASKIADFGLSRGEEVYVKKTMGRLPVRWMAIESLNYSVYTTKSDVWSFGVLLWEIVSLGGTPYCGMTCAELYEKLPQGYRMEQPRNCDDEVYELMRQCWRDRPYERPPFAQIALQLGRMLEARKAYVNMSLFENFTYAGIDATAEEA

COMP-Ang-1 concentration giving maximal receptor phosphorylation (Human Tie-1 (human)): 600 ng/mL
COMP-Ang-1 concentration giving significant receptor phosphorylation (Human Tie-1 (human)): 100 ng/mL
COMP-Ang-1 concentration giving maximal receptor phosphorylation (Human Tie-2 (human)): 600 ng/mL
COMP-Ang-1 concentration giving significant receptor phosphorylation (Human Tie-2 (human)): 100 ng/mL
Substance: COMP-Ang-1 chimeric protein (from UniProt Q15389 256-498) (ligand)
